Data taken from paper PMC4427307.

Biological target: human insulin (human)
Assay: BLI; Octet Red, 96-well microplates, 25°C; biotinylated human insulin (12.5-50 μg/ml) immobilised on Streptavidin Biosensors; rSjLD1 (3.5-56 μg/ml) or rSjLD2 (1.78-56 μg/ml) in solution; kinetic buffer (1mM phosphate, 15mM NaCl, 0.1mg/ml BSA, 0.002% Tween-20); association 1000 s, dissociation …; double reference subtraction (BSA negative control and sensor)

Substance	Kd [nM]
recombinant L1 subdomain of Schistosoma japonicum insulin receptor 1 (SjLD1), expressed in Drosophila S2 cells (domain or fragment)	64.4
recombinant L1 subdomain of Schistosoma japonicum insulin receptor 2 (SjLD2), expressed in Drosophila S2 cells (domain or fragment)	8.78
